Changes are numbered by the printed parent chain. Where two headings read alike, the source gives them in different places.
B1: T7AC_6H_mS9ProE (enzyme)
chain: MLEDPERNKERKEAELQAQTAEQHHHHHHGKNHAGSPGCEESAAGKEKLPKMRLPTRSDMICGYACLKGTAAMRNTKRGSWYIEALAQVFSERACDMHVADMLVKVNALIKDREGYAPGTEFHRCKVMSEYCSTLCRHLYLFPGHPPTGSGPVCLQVKPCTPEFYQTHFQLAYRLQSRPRGLALVLSNVHFTDEKELEFRSGGDVDHSTLVTLFKLLGYDVHVLCDQTAQEMQEKLQNFAQLPAHRGTDSCIVALLSHGVEGAIYGVDGKLLQLQEVFQLFDNANCPSLQNKPKMFFIQACRGEETERGVDQQD
B2: T7AC_6H_mS9ProD (enzyme)
chain: B1 chain with E307D

Experiments:
[1] = target: 6H-GSG-VDVAD-BIWA4; assay: cell-based or functional assay
6H-GSG-VDVAD-BIWA4, sequence (scFv, as listed by the source): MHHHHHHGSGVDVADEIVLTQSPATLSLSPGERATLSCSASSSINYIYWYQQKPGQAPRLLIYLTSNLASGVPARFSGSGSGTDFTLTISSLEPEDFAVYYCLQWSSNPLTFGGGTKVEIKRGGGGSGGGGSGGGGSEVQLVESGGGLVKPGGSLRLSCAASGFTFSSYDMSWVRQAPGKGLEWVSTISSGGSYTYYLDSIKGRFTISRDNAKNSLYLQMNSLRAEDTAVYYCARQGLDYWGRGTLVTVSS

[2] = target: 6H-GSG-VDVAD-BIWA4; assay: cell-based or functional assay; remark: listed apart in the source

Binder | KM [1] | KM [2]
B1 | 0.00016 | 0.00016
B2 | 0.00023 | 0.00023
